The record followed here is publication PMC4705692.

Experiment in all cases: EMSA
For orientation: In EMSA bound probe runs differently from free probe, usually more slowly.

Data set [1] deals with T1, Orf1 (HTH_42 DNA glycosylase) (Streptomyces sahachiroi ATCC33158, UniProt B4XYC8 1-371).
T1 sequence: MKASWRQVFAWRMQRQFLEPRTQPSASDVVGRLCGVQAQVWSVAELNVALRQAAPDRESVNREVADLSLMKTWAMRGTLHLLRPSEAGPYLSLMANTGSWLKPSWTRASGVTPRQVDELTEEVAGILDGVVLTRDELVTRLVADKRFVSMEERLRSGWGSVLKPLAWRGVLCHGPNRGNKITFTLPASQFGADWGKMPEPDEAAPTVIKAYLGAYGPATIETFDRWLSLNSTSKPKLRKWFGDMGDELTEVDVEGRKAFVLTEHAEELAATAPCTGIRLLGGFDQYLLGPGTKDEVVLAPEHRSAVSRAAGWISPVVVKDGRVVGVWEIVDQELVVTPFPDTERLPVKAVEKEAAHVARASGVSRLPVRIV

Data set [2] deals with T1, Orf1 (HTH_42 DNA glycosylase). This is another data set of the same source.
Data set [3] has the same target. This is another data set of the same source.

Where two headings read alike, the source gives them in different places.

B1: AAT ODN (dsDNA)
DNA 1: TATTATTATATTATTATTATT
DNA 2: AATAATAATAATATAATAATA
In the case of B1, the binding result in data set [1] was “binds”.

B2: GCC ODN (dsDNA)
DNA 1: TATTATTATGCCATTATTATT
DNA 2: AATAATAATGGCATAATAATA
For B2, in data set [2], the binding result is reported as “binds”.

B3: GCT ODN (dsDNA)
DNA 1: TATTATTATGCTATTATTATT
DNA 2: AATAATAATAGCATAATAATA
As for B3, the binding result in data set [1] is “binds”.

B4: GAT ODN (dsDNA)
DNA 1: TATTATTATGATATTATTATT
DNA 2: AATAATAATATCATAATAATA
Turning to B4, in data set [1], the binding result is “binds”.

B5: GCC ODN azinomycin B-adducted (dsDNA)
DNA 1: TATTATTATGCCATTATTATT
DNA 2: AATAATAATGGCATAATAATA
modifications: azinomycin B interstrand cross-link G-G at the GCC site (mixture with monoadduct possible)
For B5, in data set [3], the binding result is “binds”.
